Assay results from patent publication US20160279215A1, “NOVEL PEPTIDES AND COMBINATION OF PEPTIDES FOR USE IN IMMUNOTHERAPY AGAINST VARIOUS TUMORS” (immatics biotechnologies GmbH, priority 2015, published 2016).

Columns and labels:
[1] = system: CD8+ T cells of healthy HLA-A*02 donors; assay: In vitro immunogenicity: T-cell priming with aAPCs loaded with peptide/MHC and anti-CD28, pMHC multimer readout; format: cell-based, human; conditions: in vitro immunogenicity of HLA class I peptides; for donors: percentage of positive donors; for wells: percentage of positive wells
From the text: In order to obtain information regarding the immunogenicity of the TUMAPs of the present invention, the inventors performed investigations using an in vitro T-cell priming assay based on repeated stimulations of CD8+ T cells with artificial antigen presenting cells (aAPCs) loaded with peptide/MHC complexes and anti-CD28 antibody.
In order to perform in vitro stimulations by artificial antigen presenting cells loaded with peptide-MHC complex (pMHC) and anti-CD28 antibody, the inventors first isolated CD8+ T cells from fresh HLA-A*02 leukapheresis products via positive selection using CD8 microbeads (Miltenyi Biotec, Bergisch-Gladbach, Germany) of healthy donors obtained from the University clinics Mannheim, Germany, after informed consent. PBMCs and isolated CD8+ lymphocytes were incubated in T-cell medium (TCM) until use consisting of RPMI-Glutamax (Invitrogen, Karlsruhe, Germany) supplemented with 10% heat inactivated human AB serum (PAN-Biotech, Aidenbach, Germany), 100 U/ml Penicillin/100 μg/ml Streptomycin (Cambrex, Cologne, Germany), 1 mM sodium pyruvate (CC Pro, Oberdorla, Germany), 20 μg/ml Gentamycin (Cambrex). 2.5 ng/ml IL-7 (PromoCell, Heidelberg, Germany) and 10 U/ml IL-2 (Novartis Pharma, Nürnberg, Germany) were also added to the TCM at this step. Generation of pMHC/anti-CD28 coated beads, T-cell stimulations and readout was performed in a highly defined in vitro system using four different pMHC molecules per stimulation condition and 8 different pMHC molecules per readout condition.
The purified co-stimulatory mouse IgG2a anti human CD28 Ab 9.3 (Jung et al., 1987) was chemically biotinylated using Sulfo-N-hydroxysuccinimidobiotin as recommended by the manufacturer (Perbio, Bonn, Germany). Beads used were 5.6 μm diameter streptavidin coated polystyrene particles (Bangs Laboratories, Illinois, USA).
pMHC used for positive and negative control stimulations were A*0201/MLA-001 (peptide […] (SEQ ID NO. 289) from modified Melan-A/MART-1) and A*0201/DDX5-001 ([…] from DDX5, SEQ ID NO. 290), respectively.
800.000 beads/200 μl were coated in 96-well plates in the presence of 4×12.5 ng different biotin-pMHC, washed and 600 ng biotin anti-CD28 were added subsequently in a volume of 200 μl. Stimulations were initiated in 96-well plates by co-incubating […] CD8+ T cells with 2×10^5 washed coated beads in 200 μl TCM supplemented with 5 ng/ml IL-12 (PromoCell) for 3 days at 37° C. Half of the medium was then exchanged by fresh TCM supplemented with 80 U/ml IL-2 and incubating was continued for 4 days at 37° C. This stimulation cycle was performed for a total of three times. For the pMHC multimer readout using 8 different pMHC molecules per condition, a two-dimensional combinatorial coding approach was used as previously described (Andersen et al., 2012) with minor modifications encompassing coupling to 5 different fluorochromes. Finally, multimeric analyses were performed by staining the cells with Live/dead near IR dye (Invitrogen, Karlsruhe, Germany), CD8-FITC antibody clone SK1 (BD, Heidelberg, Germany) and fluorescent pMHC multimers. For analysis, a BD LSRII SORP cytometer equipped with appropriate lasers and filters was used. Peptide specific cells were calculated as percentage of total CD8+ cells. Evaluation of multimeric analysis was done using the FlowJo software (Tree Star, Oreg., USA). In vitro priming of specific multimer+ CD8+ lymphocytes was detected by comparing to negative control stimulations.
Exemplary flow cytometry results after TUMAP-specific multimer staining for 15 peptides of the invention are shown in FIGS. 3 and 6 together with corresponding negative controls.

[2] = biological target: T1, HLA-A*02:01 (human); assay: UV ligand-exchange ELISA (anti-b2m); ++ = exchange yield >=20%
T1 construct: MHC monomers captured on streptavidin plates; the UV-sensitive peptide is cleaved and exchanged with the test peptide; also called peptide-receptive MHC molecules; MHC class I
From the text: Candidate peptides for T cell based therapies according to the present invention were further tested for their MHC binding capacity (affinity). The individual peptide-MHC complexes were produced by UV-ligand exchange, where a UV-sensitive peptide is cleaved upon UV-irradiation, and exchanged with the peptide of interest as analyzed. Only peptide candidates that can effectively bind and stabilize the peptide-receptive MHC molecules prevent dissociation of the MHC complexes. To determine the yield of the exchange reaction, an ELISA was performed based on the detection of the light chain (β2m) of stabilized MHC complexes. The assay was performed as generally described in Rodenko et al. (Rodenko et al., 2006).
96 well MAXISorp plates (NUNC) were coated over night with 2 ug/ml streptavidin in PBS at room temperature, washed 4× and blocked for 1 h at 37° C. in 2% BSA containing blocking buffer. Refolded HLA-A*02:01/MLA-001 monomers served as standards, covering the range of 15-500 ng/ml. Peptide-MHC monomers of the UV-exchange reaction were diluted 100 fold in blocking buffer. Samples were incubated for 1 h at 37° C., washed four times, incubated with 2 ug/ml HRP conjugated anti-β2m for 1 h at 37° C., washed again and detected with TMB solution that is stopped with […]. Absorption was measured at 450 nm. Candidate peptides that show a high exchange yield (preferably higher than 50%, most preferred higher than 75%) are generally preferred for a generation and production of antibodies or fragments thereof, and/or T cell receptors or fragments thereof, as they show sufficient avidity to the MHC molecules and prevent dissociation of the MHC complexes.

| Molecule | peptide exchange yield [2] [%] | further results |
| --- | --- | --- |
| 287 (KIQEILTQV; listed as Homo sapiens) [compound 287] |  | donors [1]: +++ (50%-69% = +++); wells [1]: + (<20% = +) |
| 288 (SLYKGLLSV; listed as Homo sapiens) [compound 288] |  | donors [1]: ++++ (>= 70% = ++++); wells [1]: ++ (21%-49% = ++) |
| SLNKQIETV | 20 to 50 |  |
| KMISAIPTL | 20 to 50 |  |
| SLYALHVKA | 20 to 50 |  |
| KLLDKPEQFL (also called FMN1-001) | 20 to 50 |  |
| AVPPPPSSV | 20 to 50 |  |
| TLYPGRFDYV | 20 to 50 |  |
| RVLPGQAVTGV | 20 to 50 |  |
| GLTEKTVLV | 20 to 50 |  |
| VLMDEGAVLTL | 20 to 50 |  |
| TLHDQVHLL (also called ESR1-001) | 20 to 50 |  |
| FLLDKPQDL | 20 to 50 |  |
| SLYAGSNNQV | 20 to 50 |  |
| LLLESDPKVYSL | 20 to 50 |  |
| YLADTVQKL | 20 to 50 |  |
| TLDRNSLYV | 20 to 50 |  |
| RLYGYFHDA | 20 to 50 |  |
| FVMEGEPPKL | 20 to 50 |  |
| QIVELIEKI | 20 to 50 |  |
| IKVTDPQLLEL | 20 to 50 |  |
| AILNVDEKNQV | 20 to 50 |  |

| Molecule | peptide exchange yield [2] [%] | further results |
| --- | --- | --- |
| KLIGNIHGNEV | 20 to 50 |  |
| GLAFLPASV | 20 to 50 |  |
| ALDTTRHEL | 20 to 50 |  |
| KQMSISTGL | 20 to 50 |  |
| GLLENSPHL | 20 to 50 |  |
| VLLGSVVIFA | 20 to 50 |  |
| VIIKGLEEI | 20 to 50 |  |
| VLSTRVTNV | 20 to 50 |  |
| VLQQESNFL | 20 to 50 |  |
| TIGIPFPNV | 20 to 50 |  |
| HMSGKLTNV | 20 to 50 |  |
| LLPSIFLMV | 20 to 50 |  |
| TVLEEIGNRV | 20 to 50 |  |
| LDSEALLTL | 20 to 50 |  |
| ILAEEPIYI | 20 to 50 |  |
| SLDKDIVAL | 20 to 50 |  |
| AMLASQTEA | 20 to 50 |  |
| LKVLKADVVL | 20 to 50 |  |
| SLSEKSPEV | 20 to 50 |  |
| AMFPDTIPRV | 20 to 50 |  |
| KLMDPGSLPPL | 20 to 50 |  |
